Data as given in the DeepSol protein solubility set.

Assay: soluble on expression in E. coli; label from the status in PepcDB or PDB records
In the case of “MSLKNLILAIESSCDDSSIAIIDKNTLECKFHKKISQELDHSIYGGVVPELAARLHSEALPKMLKQCKEHFKNLCAIAVTNEPGLSVSLLSGISMAKTLASALNLPLIPINHLKGHIYSLFLEEKISLDMGILLVSGGHTMVLYLKDDASLELLASTNDDSFGESFDKVAKMMNLGYPGGVIIENLAKNAKLKNISFNTPLKHSKELAFSFSGLKNAVRLEILKHENLNEDTKAEIAYAFENTACDHIMDKLEKIFNLYKFKNFGVVGGASANLNLRSRLQNLCQKYNANLKLAPLKFCSDNALMIARAAVDAYEKKEFVSVEEDILSPKNKNFSRIEGHHHHHH”, the “soluble on expression in E. coli” value is reported as “soluble”.
In the case of “MTKSYDVWWQKGQESDDDMARDHQEAWERTIEMLDTSDIKGKTILDVGCNQGGFLRKLYDTTPFKEGVGIDLARLSLEKAETLKGERPLTYYLTDKPQETNRTFDTAVSTSVLYLIEDIPQHAQDLKEVLKPGGVYYASFADLTNNPSRQFMDDTINQYGATPSQNHSLKHIVDSFVDAGFEVAVMKEPVPDVIDLTHYSDFYLSPNDYLQTLYEESFLIKASVKEGIGKLEHHHHHH”, the “soluble on expression in E. coli” value is reported as “soluble”.
In the case of “MGHHHHHHSHGSCEVLRLLDLGASPSYRRWIWQHLELIDGRPLKTHLSEYSPMERFKEFQIKSYPLQDFSSLKLPHLKKAWGLQGTSFSRKIRTSGDTLPKMLGPKIQSRPAQSIKCAMINIKPGELPKEAAVGAYVKVHTVEQGEILGLHQAFLPEGECDTRPLILMSLGNELIRIRKEIFYELIDNDDEMIKKLLKLNIAFPSDEDMCQKFLQQNSWNIFRKDLLQLLVEPCQSQLFTPNRPKKREIYNPKSVVLDLCSINKTTKPRYPIFMAPQKYLPPLRIVQAIKAPRYKIRELLA”, the “soluble on expression in E. coli” value is reported as “not soluble”.
With “MGSDKIHHHHHHMNFTKIAVSAGCILALCAGCGANDTSSTKEKASSEKSGVTKEITASVNKMETIISKLNDSVEKGDQKEIEKKGKELNSYWLSFENDIRSDYPFEYTEIEKHLQPIYTEAQKDKPDAGKIKTESESLKASLEDLTEAKKSGKKASDQLAKAADEYKGYVKEQSDQLVKATEAFTGAVKSGDIEKSKTLYAKARVYYERIEPIAESLGDLDPKIDARENDVEEGDKWTGFHKLEKAIWKDQDISGEKATADQLLKDVKELDGSIQSLKLTPEQIVAGAMELLNEAGISKITGEEERYSRIDLVDLMANVEGSEAVYQTVKSALVKDHSDLTEKLDTEFSEFEVLMAKYKTNDQSYTSYDKLSEKQIRELSTKLTTLSETMSKIANVL” the “soluble on expression in E. coli” value was “not soluble”.
For “MQVDDWIVGLEVEIFTFDGKEYRGIVYTYDADANCVVLARKSQDSLKSDLRILKASLVKNINVLGRSNVDQLPQQLSPLNLEALKMREEQALQKARKDLARTGVGVSQQAQEIFDALCKTLPCQWEEDSIVIFENIKLKKPYRVEDLEGSEIEAVNRVKVVLENELQKLQRRNT”, the “soluble on expression in E. coli” value was “soluble”.
For “MTHAPTTTPLRTAAKLLAAGAAALTLNSCAYDGIKVIVINMFQGEAQPFIDRYDLKEKVYIAGLSPDAPNLLCNYDGICQVTTGMGYANAAATLSALLYRSKLDLTQTYFVIAGIAGIDPGQGTVGSAAWARYAVDYGLSHEIDAREMPAAWPYGYFGIGTKGPGEKPPMNYRTEVFRLNEALLQRAYALSKPVTLEDSPEAIAFRKHYAYAPANQPPAVIQCDVASADTWWAGRNLGQRARDWTKTMTDGKGTYCTTAQEDNATLEVLARGARAGKVDFSRVALLRTGSDFDRPYDGQSAADGLVNYAQQGGFVPATHNLVNAAKPLLDDIVLRWPQWAQGVPANLEHHHHHH”, the “soluble on expression in E. coli” value was “not soluble”.
In the case of “MLQDADRTRILAISPHLDDAVLSVGASLAQAEQDGGKVTVFTVFAGSAAPPYSPAAERFHARWGLSPTEDAPLRRRNEDIAALDQLGAGHRHGRFLDAIYRRSPDGQWLLHHNEGSMVRQQSPANNHDLVAAIREDIESMIAECDPTLVLTCVAIGKHPDHKATRDATLLAARERGIPLRLWQDLPYAAYSQDLAELPDGLRLGSPELSFVDEEARTRKFQAMKHYATQLSVLDGPNKNLFAKLDEHARNAAPDGGYNETTWPVIRYAAE”, the “soluble on expression in E. coli” value is reported as “soluble”.
For “AHHHHHHGSRIVAITDIHGRRSMVEKLVDVVRREDVDVILIAGDITHFSGAEEAERVLSPLLTLEIPLLAVMGNCDGRDVLDFLEERGVSVHDKRVEIKGVGVVGFGGSNITPFSTIWEFSDDVIYSSLIRNYRQGDIVLTHAPPYGTKLDKTHSGIHAGSMGLRKFIEEKQPKLCICGHIHEGRGVEKIGNTIVVNPGPLARGYYAVIEGDSVELLNLKG”, the “soluble on expression in E. coli” value was “soluble”.
For “MGILETLVLKEKINGTEKAVIFRELIKKEMELLNDYCAKNHLFPKDYRIEFCHLHNIKKVNIARLLTILKYYDPRFIEILMSTDPKVRTFIQYFMEFLEKHPYFEDVLEPQNLFGNWDYIRYKLKILFPQLTFEEIDRFKFKRKEFINYVKEKLGEPEELIEDKLNLATWYESVPYLELESEMTPGVHPDPVMTPEEWSFIKRHIKGRKNIIIRDPDTGKEKLVYVEVDIPDEELDKYYKNREGLKKLLMERYNIDESGAEQILRKAGWEATGWHIVPPVHTDVEVVYPEEEKKEEKKVEVKREPFDIMELAKHIRYLGGRELEMLNYYELVHDKVPEIHEKLHMFMRTKRRLLGKLFGIYYTVDPVMAEAILINDPENIELLKSLTISTGLRDKKFSIYDSSKVWNEIKRRVRFIFPEVSEEEIEKFKGKRSEFVTYLAQKLGKPEEYIDERLERAGWLRSEEIPAFIRHVGP”, the “soluble on expression in E. coli” value was “not soluble”.
For “MNEISVVLPAYNEEENIQKLVKRWQQLCKDLKYKYELSLNIFVIDDGSKDKTEVIGRELERKYDNFYLIKHDKNKGLGEAINTGIKYVMEKRSDSKYVCIMDCDNTQDPRYVFSMIEKMEKTDVVIASRYQKGSCVKGVPFFRLTASYGARFVYTIFLGVKNVRDYTCGYRLYRTSALKTAFKVFGESFIEESGFTCMVELLYKLNICGAVFKEVPFTLRYDFKGGVSKMKVLITAINSVKLTLRLKKIRKGVEPVLEDLEHHHHHH”, the “soluble on expression in E. coli” value was “not soluble”.
With “DTPEPPLHNFYCSKLLDLVFLLDGSSMLSEAEFEVLKAFVVGMMERLHISQKRIRVAVVEYHDGSRAYLELKARKRPSELRRITSQIKYTGSQVASTSEVLKYTLFQIFGKIDRPEASHITLLLTASQEPPRMARNLVRYVQGLKKKKVIVIPVGIGPHASLKQIRLIEKQAPENKAFLLSGVDELEQRRDEIVSYLCDLAPEAPAPT” the “soluble on expression in E. coli” value was “soluble”.
With “MDDRGGSFVAVRRISQGLERGSVYHSSSAEVVAGSAAWLGRGLSCVCVQGRDGDPRPSFDLTPAQEECLQRLQSRIDVAYDSSIPQHQEALKDLWKLAFPEEELHGIVSDQWKEMGWQGKDPSTDFRGGGFISLENLLYFARKFPKSFHGLLRKQVGDRSVWEYPFAVAGINITFMLIQMLDLEAVNESAFDLLYCIAFKLMDQQWLSMRASYMEFNTVMKSTRRQLEREIMIEDITSLEDLPSYSLLSQ” the “soluble on expression in E. coli” value was “soluble”.
With “MGSDKIHHHHHHMILDTLENLAHYTHLGPRIAKALQHLKETDFTQLPVGNYELEGKDIFVIVNDYETKPREVEPFEVHRKYIDVQYVVSGEEEFGYLPLADQTPSKPYYDKHDYAEFDYESNKARAAFIPFKAGMFALFFPQDMHMPGVSATPQKVRKVVIKVKI” the “soluble on expression in E. coli” value was “not soluble”.
For “MVKEFNTQTELSVRLEALWAVLSKDFITVVPKVLPHIVKDVQLIEGDGGVGTILIFNFLPEVSPSYQREEITEFDESSHEIGLQVIEGGYLSQGLSYYKTTFKLSEIEEDKTLVNVKISYDHDSDIEEKVTPTKTSQSTLMYLRRLERYLSNGSA”, the “soluble on expression in E. coli” value was “soluble”.
In the case of “MRDLLNDLSEGLSHPDPILRAQIQMQKPLPKRFYKDVTVADVEEGGFTILLDGKPLRTPAKKPLVAPSRALADLLRDEWDAQKEVVNPVVMPVSRHVNTAIDGIASDTQAVFEDILRFSSSDLLCYRAGDPEALVARQTDYWDPVLDWATNVLGARFILVEGVMHRDQPREAIAAFAVTLKKYDTPIALAALHTMTSLTGSAILALALAEGELTLEEAWALAHLDEDWTAEQWGEDEEALERRAVRLIDMRAALNVLESLKSAS”, the “soluble on expression in E. coli” value is reported as “soluble”.
